# Experimental data taken from publication PMC5691035 (Nature Communications, 2017).
# Residue numbers refer to the chain shown, from its start.
# B1: 1268 Fab (Fab, V domains shown)
# VH: EVQLVESGGGLVKPGGSLRLSCAASGFTFSRYSMNWVRQAPGKGLEWVSSISSRSSYKYYVDSVKGRFTISRDNAKNSLYLQMNSLRAEDTAVYYCARDDYGSGSYYYNWLDPWGQGTLVTVSS
# VL: DIQLTQSPSFLSASVGDRVTITCWASQGISSFLAWYQQKPGKAPKLLIYAASTLESGVPSRFSGSGSGTEFTLTISSLQPEDFATYYCQQLNSYPRTFGQGTKVEIK
# notes: also called mAb 1268; source: HEK293F, transient, purified (KappaSelect or LambdaSelect, MonoS, SEC)
# B2: 1262 Fab (Fab, V domains shown)
# VH: QVQLQESGPGLVKPSGTLSLTCAVSGGSISSSHWWSWVRQPPGKGLEWVGEISLSGSTHYGPSLKSRVSISLDKSMNHFSLRLSSVTAADTAVYYCARESRFYGAYFDYWGQGTLVTVSS
# VL: B1 VL with S30N, F32Y, A43T, E55Q, R96C, T97S, K103T, V104L
# notes: also called mAb 1262; source: HEK293F, transient, purified (KappaSelect or LambdaSelect, MonoS, SEC)
# B3: 1202 Fab (Fab, V domains shown)
# VH: QVQLVESGGDLVKPGGSLRLSCAASGFTFSDHYMNWIRQAPGKGLEWVSYISSSGSTIYYSDSVKGRFTISRDNAKYLLSLQMNSLRAEDTAVYFCARDPMVRGFHDAFDIWGQGTMVTVSS
# VL: SYELTQPPSVSVSPGQTASITCSGDKLGDKYASWYQQKPGQSPVLVIFQDNKRPSGIPERFSGSNSGNTATLTISETQAMDEADYYCQAWDISTAVFGTGTNVT
# notes: also called mAb 1202; source: HEK293F, transient, purified (KappaSelect or LambdaSelect, MonoS, SEC)
# B4: 1260 Fab (Fab, V domains shown)
# VH: QVQLVQSGAEVKKPGASVKVSCRASGYIFTSYGFSWVRQAPGQGLEWMGWISAYNGNTDYSQKLQGRVTMTTDTSTNTVYMELRTLQSDDTAVYYCARDRGDRLYYYYYYGMDVWGQGTTVTVSS
# VL: not shown
# notes: also called mAb 1260; source: HEK293F, transient, purified (KappaSelect or LambdaSelect, MonoS, SEC)
# B5: 1267 Fab (Fab, V domains shown)
# VH: QVQLQQSGPGLVKPSQTLSLTCAISGDSVSSNSAAWNWIRQSPSRGLEWLGRTYYRSKWYNDYAVSVRGRITINPDTSKNHFSLQLNSVTPEDTAVYFCARDLMTNSGWYVYFDCWGQGTLVTVSS
# VL: SYELTQPPSVSVSPGQSARITCSGDALPMKYAYWYQQKSGQAPVLVIYEDSKRPSGIPERFSGSSSGTMATLTISGAQVEDEADYYCFSTDSSGNHRVFGGGTKLT
# notes: also called mAb 1267; source: HEK293F, transient, purified (KappaSelect or LambdaSelect, MonoS, SEC)
# B6: 1266 Fab (Fab, V domains shown)
# VH: QVQLQQSGPGLVKPSQTLSLTCAISGDSVSSNSAAWNWIRQSPSRGLEWLGRTYYRSKWYNDYAVSVKSRITINADTSKNQFSLQLNSVTPEDTAVYYCVRDLLGSSGWYVFFDNWGQGTLVTVSS
# VL: B5 VL
# notes: also called mAb 1266; source: HEK293F, transient, purified (KappaSelect or LambdaSelect, MonoS, SEC)
# B7: 1269 Fab (Fab, V domains shown)
# VH: EVQLVESGGGLVQSGGSLRLSCAASGFTFSRNAMNWVRQAPGKGLEWVSTISGSGDSTYYADSVKGRFTISRDNSKNTLYLQVNSLRAEDTAVYYCAKGDYYFDSGSYSFGMDVWGQGTTVTVSS
# VL: EIVLTQSPGTLSLSPGERATLSCRTSQSVSSSYLAWYQQKPGQAPRLLMYGASSRATGIPDRFSGSGSGTDFTLTISRLEPEDFAVYYCQQYGNSFGQGTRLEIK
# notes: also called mAb 1269; source: HEK293F, transient, purified (KappaSelect or LambdaSelect, MonoS, SEC)
# B8: 1269 IgG (antibody, V domains shown)
# VH: B7 VH
# VL: B7 VL
# notes: IgG1; also called mAb 1269; source: HEK293, transient, purified from conditioned medium (Protein A); synthesized by LakePharma
# B9: 1245 IgG (antibody, V domains shown)
# VH: QVQLVQSGGEVKKPGASVKVSCKASGYTFTSYGISWVRQAPGQGLEWMGWISAYNGNRKYAQKVQGRVSMTIDTHTSTANMELRSLRSDDTAVYYCAKDRGDGDYRYYYYGMDVWGQGTTVTVSS
# VL: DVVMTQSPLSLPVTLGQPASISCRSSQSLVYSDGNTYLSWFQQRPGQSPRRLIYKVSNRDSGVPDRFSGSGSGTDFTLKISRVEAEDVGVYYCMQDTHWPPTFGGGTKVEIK
# notes: IgG1; also called mAb 1245; source: HEK293, transient, purified from conditioned medium (Protein A); synthesized by LakePharma
# B10: 1245 Fab (Fab, V domains shown)
# VH: B9 VH
# VL: not shown
# notes: also called mAb 1245; source: HEK293F, transient, purified (KappaSelect or LambdaSelect, MonoS, SEC)
# B11: 1276 Fab (Fab, V domains shown)
# VH: not shown
# VL: SYVLTQPPSVSVAPGKTAKITCGGNNIGSKSVHWYQQKPGQAPVLVMYYDFDRPSGIPERFSGSNSGNTATLTISRVEAEDEADYYCQVWDSDRYWVFGGGTKLTVL
# notes: source: HEK293F, transiently expressed, purified (LambdaSelect or KappaSelect, MonoS, Superdex 200)
# B12: 1262 Fab (Fab, V domains shown)
# VH: B2 VH
# VL: B1 VL with S30N, F32Y, A43T, E55Q, R96C, T97S, K103T, V104L
# notes: source: HEK293F, transiently expressed, purified (KappaSelect or LambdaSelect, MonoS, Superdex 200)
# B13: 1268 Fab (Fab, V domains shown)
# VH: B1 VH
# VL: B1 VL
# notes: as for B12
# B14: 1202 Fab (Fab, V domains shown)
# VH: B3 VH
# VL: B3 VL
# notes: as for B11
# B15: 1190 Fab (Fab, V domains shown)
# VH: not shown
# VL: SYVLTQPPSVSVAPGQTARITCGGSNIGSKSVHWYQQKPGQTPMLVIYYDYDRPSGIPERFSGSNSGSTATLTISRVEAGDEADYYCQVWDSSSDHVWVFGGGTTLTVL
# notes: as for B11
# B16: 1260 Fab (Fab, V domains shown)
# VH: B4 VH
# VL: not shown
# notes: as for B12
# B17: 1266 Fab (Fab, V domains shown)
# VH: B6 VH
# VL: B5 VL
# notes: as for B11
# B18: 1267 Fab (Fab, V domains shown)
# VH: B5 VH
# VL: B5 VL
# notes: as for B11
# B19: 1269 Fab (Fab, V domains shown)
# VH: B7 VH
# VL: B7 VL
# notes: as for B12
# B20: 1245 Fab (Fab, V domains shown)
# VH: B9 VH
# VL: not shown
# notes: as for B12
# Molecular target: Pfs25, monomeric, Nicotiana benthamiana-produced (Plasmodium falciparum (NF54; identical …, UniProt P13829)
# Assay: BLI
# Settings: both partners purified
# Sequence of Pfs25, monomeric, Nicotiana benthamiana-produced (Plasmodium falciparum (P13829 17-196): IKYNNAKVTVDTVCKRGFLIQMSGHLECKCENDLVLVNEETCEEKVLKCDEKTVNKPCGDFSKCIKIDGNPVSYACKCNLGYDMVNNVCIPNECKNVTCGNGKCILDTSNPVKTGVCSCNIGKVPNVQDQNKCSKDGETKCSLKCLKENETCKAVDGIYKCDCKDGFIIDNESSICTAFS
Binder,binding result,Kd [nM]
B1,binds,
B2,binds,
B3,binds,
B4,binds,
B5,binds,
B6,binds,
B7,,3.7
B8,,< 0.001
B9,,< 0.001
B10,,31

# Molecular target: Pfs25, monomeric, produced in Nicotiana benthamiana (Plasmodium falciparum (NF54; identical …, UniProt P13829)
# Assay: BLI
# Settings: both partners purified
# Sequence of Pfs25, monomeric, produced in Nicotiana benthamiana (Plasmodium falciparum (P13829 22-193): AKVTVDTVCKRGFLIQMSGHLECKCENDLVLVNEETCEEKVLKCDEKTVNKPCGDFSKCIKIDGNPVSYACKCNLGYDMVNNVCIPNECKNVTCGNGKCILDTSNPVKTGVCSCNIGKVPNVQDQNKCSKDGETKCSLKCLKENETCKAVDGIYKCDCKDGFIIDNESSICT
Binder,koff [s⁻¹],kon [M⁻¹ s⁻¹],Kd [nM]
B11,0.0037,210000,
B12,0.0011,80000,12
B13,0.006,93000,67
B14,0.016,480000,35
B15,0.0021,300000,
B16,0.00093,23000,41
B17,0.012,420000,31
B18,0.0032,430000,7.9
B19,0.00084,220000,
B20,0.00038,22000,
